Source: US20020052480A1

Assays:
[1] = target: human fibroblast activation protein alpha (FAP), on the cell surface (HT-1080FAP clone 33, 293FAP I/2, MF-SH cells, tumor stromal fibroblasts) (human) (UniProt Q12884); assay: flow cytometry, MF-SH cells (endogenous FAP), antibody at 4,000 ng/ml
[2] = target: human fibroblast activation protein alpha (FAP), on the cell surface (HT-1080FAP clone 33, 293FAP I/2, MF-SH cells, tumor stromal fibroblasts) (human) (UniProt Q12884); assay: flow cytometry, HT-1080FAP clone 33 cells, antibody at 20 ng/ml, anti-human IgG FITC
[3] = target: human fibroblast activation protein alpha (FAP), on the cell surface (HT-1080FAP clone 33, 293FAP I/2, MF-SH cells, tumor stromal fibroblasts) (human) (UniProt Q12884); assay: flow cytometry, HT-1080FAP clone 33 cells, antibody at 0.8 ng/ml, anti-human IgG FITC
[4] = target: human fibroblast activation protein alpha (FAP), on the cell surface (HT-1080FAP clone 33, 293FAP I/2, MF-SH cells, tumor stromal fibroblasts) (human) (UniProt Q12884); assay: flow cytometry, HT-1080FAP clone 33 cells, antibody at 100 ng/ml, anti-human IgG FITC
[5] = target: human fibroblast activation protein alpha (FAP), on the cell surface (HT-1080FAP clone 33, 293FAP I/2, MF-SH cells, tumor stromal fibroblasts) (human) (UniProt Q12884); assay: flow cytometry, HT-1080FAP clone 33 cells, antibody at 4.0 ng/ml, anti-human IgG FITC
[6] = target: human fibroblast activation protein alpha (FAP), on the cell surface (HT-1080FAP clone 33, 293FAP I/2, MF-SH cells, tumor stromal fibroblasts) (human) (UniProt Q12884); assay: flow cytometry, HT-1080FAP clone 33 cells, antibody at 500 ng/ml, anti-human IgG FITC
[7] = target: human fibroblast activation protein alpha (FAP), on the cell surface (HT-1080FAP clone 33, 293FAP I/2, MF-SH cells, tumor stromal fibroblasts) (human) (UniProt Q12884); assay: flow cytometry, HT-1080FAP clone 33 cells, biotinylated antibody at 1.6 ng/ml, streptavidin-FITC
[8] = target: human fibroblast activation protein alpha (FAP), on the cell surface (HT-1080FAP clone 33, 293FAP I/2, MF-SH cells, tumor stromal fibroblasts) (human) (UniProt Q12884); assay: flow cytometry, HT-1080FAP clone 33 cells, biotinylated antibody at 8.0 ng/ml, streptavidin-FITC
[9] = target: human fibroblast activation protein alpha (FAP), on the cell surface (HT-1080FAP clone 33, 293FAP I/2, MF-SH cells, tumor stromal fibroblasts) (human) (UniProt Q12884); assay: flow cytometry, HT-1080FAP clone 33 cells, biotinylated antibody at 40.0 ng/ml, streptavidin-FITC
[10] = target: human fibroblast activation protein alpha (FAP), on the cell surface (HT-1080FAP clone 33, 293FAP I/2, MF-SH cells, tumor stromal fibroblasts) (human) (UniProt Q12884); assay: flow cytometry, HT-1080FAP clone 33 cells, biotinylated antibody at 200.0 ng/ml, streptavidin-FITC
[11] = target: human fibroblast activation protein alpha (FAP), on the cell surface (HT-1080FAP clone 33, 293FAP I/2, MF-SH cells, tumor stromal fibroblasts) (human) (UniProt Q12884); assay: flow cytometry, HT-1080FAP clone 33 cells, biotinylated antibody at 1,000.0 ng/ml, streptavidin-FITC
[12] = target: human fibroblast activation protein alpha (FAP), on the cell surface (HT-1080FAP clone 33, 293FAP I/2, MF-SH cells, tumor stromal fibroblasts) (human) (UniProt Q12884); assay: flow cytometry, HT-1080FAP clone 33 cells, biotinylated antibody at 5,000.0 ng/ml, streptavidin-FITC
[13] = target: human fibroblast activation protein alpha (FAP), on the cell surface (HT-1080FAP clone 33, 293FAP I/2, MF-SH cells, tumor stromal fibroblasts) (human) (UniProt Q12884); assay: flow cytometry competition against 1 µg/ml biotinylated cF19 on HT-1080FAP clone 33 cells; competitor at 1.00 µg/ml
[14] = target: human fibroblast activation protein alpha (FAP), on the cell surface (HT-1080FAP clone 33, 293FAP I/2, MF-SH cells, tumor stromal fibroblasts) (human) (UniProt Q12884); assay: flow cytometry competition against 1 µg/ml biotinylated cF19 on HT-1080FAP clone 33 cells; competitor at 3.16 µg/ml
[15] = target: human fibroblast activation protein alpha (FAP), on the cell surface (HT-1080FAP clone 33, 293FAP I/2, MF-SH cells, tumor stromal fibroblasts) (human) (UniProt Q12884); assay: flow cytometry competition against 1 µg/ml biotinylated cF19 on HT-1080FAP clone 33 cells; competitor at 10.00 µg/ml
[16] = target: human fibroblast activation protein alpha (FAP), on the cell surface (HT-1080FAP clone 33, 293FAP I/2, MF-SH cells, tumor stromal fibroblasts) (human) (UniProt Q12884); assay: flow cytometry competition against 1 µg/ml biotinylated cF19 on HT-1080FAP clone 33 cells; competitor at 31.66 µg/ml

Sequence of UniProt Q12884 (Q12884 whole entry): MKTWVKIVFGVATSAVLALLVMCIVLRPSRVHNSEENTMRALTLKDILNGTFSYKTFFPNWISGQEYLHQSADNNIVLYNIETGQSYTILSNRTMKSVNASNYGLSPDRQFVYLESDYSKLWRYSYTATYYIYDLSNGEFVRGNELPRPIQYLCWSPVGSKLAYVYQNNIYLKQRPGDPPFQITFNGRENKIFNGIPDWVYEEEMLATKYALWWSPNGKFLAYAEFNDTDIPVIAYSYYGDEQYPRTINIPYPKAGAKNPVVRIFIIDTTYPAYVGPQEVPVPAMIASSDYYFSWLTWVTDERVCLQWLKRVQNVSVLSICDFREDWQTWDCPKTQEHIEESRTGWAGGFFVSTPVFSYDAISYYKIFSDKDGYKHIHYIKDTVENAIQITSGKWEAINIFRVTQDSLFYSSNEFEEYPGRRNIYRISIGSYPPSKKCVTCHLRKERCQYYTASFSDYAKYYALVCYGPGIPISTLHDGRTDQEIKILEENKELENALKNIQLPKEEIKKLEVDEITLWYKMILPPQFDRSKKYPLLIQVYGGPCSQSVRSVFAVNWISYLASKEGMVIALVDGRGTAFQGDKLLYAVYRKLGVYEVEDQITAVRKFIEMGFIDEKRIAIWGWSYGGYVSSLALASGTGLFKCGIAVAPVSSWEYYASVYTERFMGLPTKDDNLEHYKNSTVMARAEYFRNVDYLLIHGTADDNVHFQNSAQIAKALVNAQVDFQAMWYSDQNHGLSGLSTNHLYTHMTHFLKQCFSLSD

## hIgG1 (human immunoglobulin, IgG1 subclass), isotype control (antibody)
[1]
  Mean fluorescence intensity: 0.6
[2]
  Mean fluorescence intensity: 0.12
[3]
  Mean fluorescence intensity: 0.12
[4]
  Mean fluorescence intensity: 0.12
[5]
  Mean fluorescence intensity: 0.12
[6]
  Mean fluorescence intensity: 0.12
[7]
  Mean fluorescence intensity: 0.3
[8]
  Mean fluorescence intensity: 0.2
[9]
  Mean fluorescence intensity: 0.2
[10]
  Mean fluorescence intensity: 0.2
[11]
  Mean fluorescence intensity: 0.2
[12]
  Mean fluorescence intensity: 0.2
[13]
  Mean fluorescence concentration: 9
[14]
  Mean fluorescence concentration: 11.3
[15]
  Mean fluorescence concentration: 9.8
[16]
  Mean fluorescence concentration: 10.3
